Reference: publication PMC10572825 (2023)

Molecular target: Tenascin-C (Mus musculus, UniProt Q80YX1, FITC-labelled tenascin-C)
Assay: isothermal fluorescence titration

Kd: 270 nM
B1: CCL26 (protein)
chain: TRGSDISKTCCFQYSHKPLPWTWVRSYEFTSNSCSQRAVIFTTKRGKKVCTHPRKKWVQKYISLLKTPKQL
